Assay results: publication PMC10929192 (2024)

B1: human full-length H103 Ab (anti-PKM2 antibody, IgG1) (antibody, V domains shown)
VH: QVQLQESGPGLVRPSGTLSLICAVSGDSISSSIWWSWVRQSPGKGLEWIGYIYHNGNTYYNPSLESRVTISVDTSENQFSLKLSSVTAADTAVYYCARGYDSSGYYWTDDRYYFDYWGQGTLVTVSS
VL: NFMLTQPHSVSESPGKTVTISCTGSSGSIASNYVQWYQQRPGSAPTTVIYEDNQRPPGVPDRFSGSIDSSSNSASLTISALETEDEADYYCQSYDSRNIDVVFGGGTKVTVL
B2: Na2S2O4-cleaved HAP103 Ab (act-HAP103) (antibody, V domains shown)
VH: B1 VH
VL: B1 VL

Biological target: human PKM2 Ag (M2 splice isoform of pyruvate kinase), purified (human, UniProt P14618 1-531)
Sequence (P14618 whole entry, canonical isoform): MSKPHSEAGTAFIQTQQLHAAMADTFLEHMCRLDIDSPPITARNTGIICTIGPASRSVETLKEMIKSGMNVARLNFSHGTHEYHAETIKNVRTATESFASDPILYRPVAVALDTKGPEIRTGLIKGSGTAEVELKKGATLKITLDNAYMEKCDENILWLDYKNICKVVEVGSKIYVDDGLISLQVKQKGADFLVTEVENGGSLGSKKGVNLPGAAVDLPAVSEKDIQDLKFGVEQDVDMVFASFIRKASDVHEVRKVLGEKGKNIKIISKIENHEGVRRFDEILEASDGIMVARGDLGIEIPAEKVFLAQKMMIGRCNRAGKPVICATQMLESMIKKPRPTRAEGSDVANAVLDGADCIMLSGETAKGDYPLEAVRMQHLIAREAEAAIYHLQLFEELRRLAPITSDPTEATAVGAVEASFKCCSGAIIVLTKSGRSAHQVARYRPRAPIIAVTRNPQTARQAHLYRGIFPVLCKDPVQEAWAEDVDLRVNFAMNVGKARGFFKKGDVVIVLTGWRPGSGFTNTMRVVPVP
Assay: SPR

| Kd [nM] | Binder |
| --- | --- |
| 0.228 | B1 |
| 0.632 | B2 |
